B1: OR4K15 (parent)
chain: GUUAACGGUCAUAGGCCAUGGAAACUAGGAGCACCAUUUCGCUGCCAGUGAAGAAAUGAACAAAGAAAAUCUGGGCCAGGCAGGCAUCAAAAGAAAUAGUCUUGCGCUCAACCAGAAAGUCUGUAAUCAUUUUAAGGGUA

Variants of: B1
Assay: self-cleavage, relative activity (ratio to wild type); higher = more cleavage; in vitro, sequencing; the parent is a self-cleaving ribozyme

Q: Which self-cleavage does the source give for GUUAACGGUCAUAGGCCAUGGAGACUAGGAGCACCAUUUCGCUGCCAGUGAAGAAAUGAACAAAGAAAAUCUGGGCCAGGCAGGCAUCAAAAGAAAUAGUCUUGCGCUCAACCAGAAAGUCUGUGAUCAUUUUAAGGGUA [A23G A125G] here?
A: 0.4

Q: With GUUGGCGGUCAUAGGCCAUGGAAACUAGGAGCACCAUUUCGCUGCCAGUGAAGAAAUGAACAAAGAAAAUCUGGGCCAGGCAGGCAUCAAAAGAAAUAGUCUUGCGCUCAACCAGAAAGUCUGUAAUCAUUUUAAGGGUA [A4G A5G] as the variant, how does the self-cleavage read?
A: 1.25

Q: For GUUAACGGUCAUAGGCCAUGGAAACUAGGAGCACCAUUUCGCUGCCAGUGAAGAAAUGAACAAAGGAAAUCUGGGCCAGGCAGGCAUCAAAAGACAUAGUCUUGCGCUCAACCAGAAAGUCUGUAAUCAUUUUAAGGGUA [A66G A95C], which self-cleavage is on record?
A: 1.5

Q: For GUUAACGGGCAUAGGCCAUGGAAACUAGGAGCACCAUUUCGCUGCCAGUGAAGAAAUGAACAAAGAAAAUCUGGGCCGGGCAGGCAUCAAAAGAAAUAGUCUUGCGCUCAACCAGAAAGUCUGUAAUCAUUUUAAGGGUA [U9G A78G], which self-cleavage is on record?
A: 0.26

Q: Which self-cleavage does the source give for GUUAACGGUCAUAGGCCAUGGAAACUAGGAGCACCAUUUCGCAGCCAGUGAAGAAAUGAACAAAGAAAAUCUGGGCCAGGCAGGCAUCAAAAGAAAUAGUCUUGCGCUCAACCAGAAAGUCUGUAUUCAUUUUAAGGGUA [U43A A126U] here?
A: 1.41

Q: For GUUAACGGUCAUAGGCCAUGGAAACUAGGAGCAUCAUUUCGCUGCCAGUGAAGAAAUGAACAAAGAAAUUCUGGGCCAGGCAGGCAUCAAAAGAAAUAGUCUUGCGCUCAACCAGAAAGUCUGUAAUCAUUUUAAGGGUA [C34U A69U], which self-cleavage is on record?
A: 2.37

Q: With GUUAACGGUCAUAGGCCAUGGAAACUAGGAGCACCAUUUCGCUGCCAGUGAAGAAAUGAACGAAGAAAAUCUGGGCCAGGCAGGCAUCAAAAGAAAUAGUCUUGCGCUCAACCAGAAAGUCUGGAAUCAUUUUAAGGGUA [A62G U124G] as the variant, how does the self-cleavage read?
A: 1.13

Q: For GUUAACGGUCAUAGGCCAUGGAAACUAGGAGCACCAUUUCGCUGCCAGUGAAGAAAUGAACAAAGAAAGUCUGGGCCAGGCAGGCAUCAAAUGAAAUAGUCUUGCGCUCAACCAGAAAGUCUGUAAUCAUUUUAAGGGUA [A69G A92U], which self-cleavage is on record?
A: 1.3

Q: For GUUAACGGUCAUAGGCCAUGGAAACUAGGAGCACCUUUUCGCUGCCAGUGAAGAAAUGAACAAAGAAGAUCUGGGCCAGGCAGGCAUCAAAAGAAAUAGUCUUGCGCUCAACCAGAAAGUCUGUAAUCAUUUUAAGGGUA [A36U A68G], which self-cleavage is on record?
A: 1.62

Q: Which self-cleavage does the source give for GUUAGCGGUCAUAGUCCAUGGAAACUAGGAGCACCAUUUCGCUGCCAGUGAAGAAAUGAACAAAGAAAAUCUGGGCCAGGCAGGCAUCAAAAGAAAUAGUCUUGCGCUCAACCAGAAAGUCUGUAAUCAUUUUAAGGGUA [A5G G15U] here?
A: 0.82

Q: Which self-cleavage does the source give for GCUAACGGUCAUAGGCCAUGGAAACUAGGAGCACCAUUUCGCUGCCAGUGAAGAAAUGAACAAAGAAAAUCUGGGCCAGGCAGGCAUCAAAAGAAAUAGUCUUGCGCUCAACCAGAAGGUCUGUAAUCAUUUUAAGGGUA [U2C A118G] here?
A: 0.88

Q: With GUUAACGGUCAUAGGCCAUGGGAACUAGGAGCACCAUUUCGCUGCCAGUGAAGAAAUGAACAAAGAAAAUCUGGGCCAGGCAGGCAUCAAAAGAAAUAGUCUUGCGCUCAACCAGAAAGUCUGUAAUCAUUUUAAGGGUG [A22G A140G] as the variant, how does the self-cleavage read?
A: 1.85

Q: Which self-cleavage does the source give for GUUAACGGUCAUAGGCCAUGGAAACUAGGAGCACCAUUUCGCUGCCAGUGAAGAAAUGAACAAAGAAAGUCUGGGCCGGGCAGGCAUCAAAAGAAAUAGUCUUGCGCUCAACCAGAAAGUCUGUAAUCAUUUUAAGGGUA [A69G A78G] here?
A: 0.27

Q: With GUUAACGGUCAUAGGCCAUGGAAACUAGGAGCACCACUUCGCUGCCAGUGAAGAAAUGAACAAAGAAAACCUGGGCCAGGCAGGCAUCAAAAGAAAUAGUCUUGCGCUCAACCAGAAAGUCUGUAAUCAUUUUAAGGGUA [U37C U70C] as the variant, how does the self-cleavage read?
A: 0.2

Q: With GUUAACAGUCAUAGGCCAUGGAAACUAGGAGCACCAUUUCGCUGCCAGUGAAGAAAUGAACAAAGAAAAUCUGGGCCAGGCAGGCAUCAAAAGAAAUAGUCUUGCGCUCAACCAGAAAGUCCGUAAUCAUUUUAAGGGUA [G7A U122C] as the variant, how does the self-cleavage read?
A: 0.84

Q: With GUUAACGGUCAUAGGCCAUGGAAACUAGGAGCACCAUUUCGCUGCCAGUGAAGAAAUGAACAAAGAAAAUCUGGACCAGGCAGGCAUCAAAAGAAAUAGUCUUGUGCUCAACCAGAAAGUCUGUAAUCAUUUUAAGGGUA [G75A C105U] as the variant, how does the self-cleavage read?
A: 0.01

Q: With GUUAACGGUCACAGGCCAUGGAAACUAGGAGCACCAUUUCGCUGCCAGUGAAGAAAUGAACAAAGAAAAUCUGGGCCAGGCAGGCAUCAAAAGAAAUAGUCUUGCGCUCAACCAGAAAGUCUGUAAUCACUUUAAGGGUA [U12C U130C] as the variant, how does the self-cleavage read?
A: 0.95

Q: Which self-cleavage does the source give for GUUAACGGUCAUAGGCCAUGAAAACUAGGAGCACCAUAUCGCUGCCAGUGAAGAAAUGAACAAAGAAAAUCUGGGCCAGGCAGGCAUCAAAAGAAAUAGUCUUGCGCUCAACCAGAAAGUCUGUAAUCAUUUUAAGGGUA [G21A U38A] here?
A: 1.28

Q: For GUUAACGGUCAUAGGCCGUGGAAACUAGGAGCACCAUUUCGCUGCCAGUGAAGAAAUGAACAAAGAAAAUCUGGGCCAGGCAGGCAUCAAAAGAAAUAGUCUUGCGCUCAGCCAGAAAGUCUGUAAUCAUUUUAAGGGUA [A18G A111G], which self-cleavage is on record?
A: 0.03

Q: For GUUAACGGUCAUAGGCCAUGGAAACUAGGAGCACCAUUUCGCUGCCAGCGAAGAAAUGAACAAAGAAAAUCUGGGCCAGGCGGGCAUCAAAAGAAAUAGUCUUGCGCUCAACCAGAAAGUCUGUAAUCAUUUUAAGGGUA [U49C A82G], which self-cleavage is on record?
A: 0.42
